In the nanobody polyreactivity screen of Harvey et al. (2022):

assay: yeast display, Sf9 membrane polyspecificity reagent, FACS + sequencing; frameworks hold sequencing errors
In short: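 After 36–48 hours of galactose induction, yeast (Saccharomyces cerevisiae BJ5465) displaying a synthetic nanobody library were stained at 4 °C for 1 hour with 10% biotinylated, detergent-solubilized Sf9 membrane reagent. Streptavidin microbeads enriched the stained cells before FACS sorting into low and high (top ~1%) gates on anti-HA and streptavidin fluorescence. Each clone's polyreactivity label reflects its gate of origin.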

Q: For “QVQLVESGGGLDQARGSLRLSCAASGSTFYLYAMGWYRQAPGKERELVAAISSGGRTYYADSVKGRFTISRDNAKNTVYLQMNSLKPEDTAVYYCAKVYRRRYYWGQGTQVTVSS”, which “polyreactivity (PSR sort gate)” value is on record?
A: high polyreactivity

Q: For “QVQLVESGGGLDQARGSLRLSCAASGTTIGGNAMGWYRQAPGKERELVAAIDSGGSTYADSVKGRFTISRDNAKKTVYVQMNSLKPEDTAVYYCAAVWEFVHFWSFDYWGQGTQVTVSS”, which “polyreactivity (PSR sort gate)” value is on record?
A: low polyreactivity

Q: With “QVQLVESGGGLDQARGSLRLSCPASGFIFTDYAMGWYRQAPGKERELVAGISGSGGRTYYADSVKGRFTISRDNAKNTVYLQMNSLKPEDTAVYYCAARGVPWLWYFRGMYWGQGTQVTVSS” as the sequence, how does the “polyreactivity (PSR sort gate)” value read?
A: high polyreactivity

Q: For “QVQLVESGGGLDQSGGSLRLTCAASGFTFVINDMGRYIHAPGKEMEWVADITSGGDTYYADSVKGRFTISRDNAKNTVYLQSNRLKPEDTAVYYCAADIYPDWIYLLYGYWGQGTQVNVSS”, which “polyreactivity (PSR sort gate)” value is on record?
A: low polyreactivity

Q: With “QVQLVESGGGLEQAGGSLRLTWAASGRIFYVYAMGLYIQAPGKERELVAAITWRGGTTYYADSVKGRFTISRDNAQNTVYLEMNSLKPEDTAVYYCNAKYFRSYYSIEYDYWGQGTQVTVSS” as the sequence, how does the “polyreactivity (PSR sort gate)” value read?
A: low polyreactivity

Q: Which “polyreactivity (PSR sort gate)” value does the source give for “QVQLVESGGGLFHAGGSLRLSCAASGSTFSRNAMGWYIPAPGKEREFVAAISWSGSSTYYADSVKGRFTISRDNAKNTVYLQMNSLKPEDTAVYYCAARSYYDGFYYWGQGTQVTVSS” here?
A: high polyreactivity

Q: Which “polyreactivity (PSR sort gate)” value does the source give for “QVQLVESGGGLFKAGGSLRLRCAPSGSIFDYNTMAWYRQAPGKERQFVAAISSARGGTSYADSVKGRFTISRDNAKNTVYLQMNSLKPEDTAVYYCAALIILTPYQRQYWKYGAYFYWGQGTQVTVSS” here?
A: high polyreactivity

Q: Which “polyreactivity (PSR sort gate)” value does the source give for “QVQLVESGGGLFKAGGSLRLSCAASGRIFEKYAMGWYRQAPGKERELVAAISYSGGSTYYADSVKGRFTISRDNAKNTVYFQMNCLKPEDTAVYYCARYSRTQAYDYWGQGTQVTVSS” here?
A: high polyreactivity

Q: Which “polyreactivity (PSR sort gate)” value does the source give for “QVQLVESGGGLFQAGGILRLSCAASGRTFHRNAMGWYRLAPGKERELVAAITGDGRTNYADSVKGRFTISRDNAKNTVYLQMNSLKPEDTAVYYCAARFSYRSYDYWGQGSQVTVSS” here?
A: low polyreactivity

Q: Which “polyreactivity (PSR sort gate)” value does the source give for “QVQLVESGGGLFQAGGRLRLSCAASGRNCNAYTMGWYRQAPGKERELVAAISRRGGSTYYADSVKGRFTISRDNAQNTVSLQMNSLNPEDTAVYYCATKSQYDYDYWGQGTQVTVSS” here?
A: high polyreactivity

Q: Which “polyreactivity (PSR sort gate)” value does the source give for “QVQLVESGGGLFQAGGRLRLSCAPSGGTLPKYAMAWYRHAPGKERELVARITWNDGTTYYADSVKGRFTISRDNAKNTVYLQMNSLIPEDTAVYYCNTDRAYWFLYPFSYYYWGQGTQVTVSS” here?
A: low polyreactivity

Q: Which “polyreactivity (PSR sort gate)” value does the source give for “QVQLVESGGGLFQAGGSLRISCAASGGTFFRYAMGWYRQAPGKERELVAAITWSSGSTYYADSVKGRFTISRDNAKNTGYLQMNSLKPEDTAVYYYDYYTYGDYWGQGTEVTVSS” here?
A: low polyreactivity

Q: With “QVQLVESGGGLFQAGGSLRLICAASGRTYYAYARGWYRQAPGKERELVAAITSGGSTYYADSVKGRFTISRDNAKNTVYLQMNSLKPEDTAVYYCNAGYYQWPFSGYDYWGQGTQVTVSS” as the sequence, how does the “polyreactivity (PSR sort gate)” value read?
A: low polyreactivity

Q: Which “polyreactivity (PSR sort gate)” value does the source give for “QVQLVESGGGLFQAGGSLRLICADSGRTFGYNAMGWYRKATGKDRELVAAINWSGASTYYADSVKGRFTISRDNAKNTVYLQMNCLKPEDTAVYYCAAAYSYIYGFDYWGQGTQVTVSS” here?
A: low polyreactivity

Q: With “QVQLVESGGGLFQAGGSLRLRCAATGLIFDLYAMGWYRQAPGKERELVAVISYDGGSTYYADSVKGRFTISRDNAKNTVYLQMNSLKPEETAVYYCNTFDGLVSPSDLYDYWGQGTQVTVSS” as the sequence, how does the “polyreactivity (PSR sort gate)” value read?
A: low polyreactivity

Q: For “QVQLVESGGGLFQAGGSLRLSCAASGFIFRDNAMGWYRQAPGKERELVAAISWSSDSTYYADSVKGRFTISRDNEKNTVYLQMNSLNPEDSAVYYCAGKGQRGYWWGFDYWGQGTQVTVSS”, which “polyreactivity (PSR sort gate)” value is on record?
A: low polyreactivity

Q: With “QVQLVESGGGLFQAGGSLRLSCAASGFIFRYYAMGWYRQAPGKERELVAAITRGGSTYYADSVKGRFTISRDNAKNTVYLQMNSLKPEDTAVYDCAARLYTQYYYWGQCTQVTVSS” as the sequence, how does the “polyreactivity (PSR sort gate)” value read?
A: high polyreactivity

Q: For “QVQLVESGGGLFQAGGSLRLSCAASGFIFYPNAMGWYRQAPGKEREWVAAITDSGGSTYYADSVKGRFTISRDNAKNTVYLQMNSLKPEDTAVYYCNADYGGYYWTWGYDYWGQGTQVTVSS”, which “polyreactivity (PSR sort gate)” value is on record?
A: low polyreactivity

Q: Which “polyreactivity (PSR sort gate)” value does the source give for “QVQLVESGGGLFQAGGSLRLSCAASGFTFFIYAMGGSRQAPGKEREFVAAITGSGGSTYYADSVKGRFTISRDNAKNTVYLQLNSLKPEDTAVYYCNKLSYGRSGYWGQGTQVTVSS” here?
A: high polyreactivity

Q: With “QVQLVESGGGLFQAGGSLRLSCAASGFTFGYYAMGWYRQAPGKERELVASISITAGSTYYADSVKGRFTISRDNAKNTVYLQMNSLKPEDTAVYYCAAKRRTRQSYYTEYYWGQGTQVTVSS” as the sequence, how does the “polyreactivity (PSR sort gate)” value read?
A: high polyreactivity

Q: For “QVQLVESGGGLFQAGGSLRLSCAASGFTFRTYAMGWYRQAPGKERELVATIRRAGSTNYADSVKGRFTISRDNAKNTVYLQMNRLKPEDTAVYYCNAGFSHRSDNGIDGYYWGPGTQVTVSS”, which “polyreactivity (PSR sort gate)” value is on record?
A: high polyreactivity

Q: Which “polyreactivity (PSR sort gate)” value does the source give for “QVQLVESGGGLFQAGGSLRLSCAASGGIFPFYAMGWYRQAPGKERELVAAISSGGSTNYADSVKGRFTISRDNAKNTVYLQMNSLKPEDTAVYYWNTVFQLGEGGSYGYDYWGQGTQVTVSS” here?
A: low polyreactivity

Q: For “QVQLVESGGGLFQAGGSLRLSCAASGITFAYYAMAWYRQAPGKERELVARISRRGGSTYYADSVKGRFTISRDNAKNTVYLQMNSLKPEDTAVYYCAARVVVPKPYVDGDYWGQGTQVTVSS”, which “polyreactivity (PSR sort gate)” value is on record?
A: high polyreactivity

Q: For “QVQLVESGGGLFQAGGSLRLSCAASGITFSKNSMGWYRQAPGQERELVAAITRRSVSKYYADSVKGRFTISRDNENNNLYLQMNSLKPEYTAVYYCAASYSSKHGYWGQGTQVTVSS”, which “polyreactivity (PSR sort gate)” value is on record?
A: high polyreactivity

Q: Which “polyreactivity (PSR sort gate)” value does the source give for “QVQLVESGGGLFQAGGSLRLSCAASGLTFNRYAMGWSRQAPGKERELVAAIDYSGGRTYYADSVKGRFTISRDYAKNTVYLQMNSLKPEDTAVFYCNALTRSVSRLLYDFWGQGSQVTVSS” here?
A: high polyreactivity

Q: With “QVQLVESGGGLFQAGGSLRLSCAASGRIFAYNTMGWYRQAPAKERELVAVITSGGSTNYADSVKGRFTISRDNAKNTVYLQLNSLKAEDTAVYYCAKRPYGRSGGSRYDYWGQGTQVTVSS” as the sequence, how does the “polyreactivity (PSR sort gate)” value read?
A: high polyreactivity

Q: For “QVQLVESGGGLFQAGGSLRLSCAASGRIFPWNTMGWYRQAPGKERELVAGINNGDRTYYADSVKGRFTISRVNAKNTVYLQMNSLKPEDTAVYYCAVDTWYFLFQYGYYQEGDYWGQGTQVTVSS”, which “polyreactivity (PSR sort gate)” value is on record?
A: low polyreactivity

Q: With “QVQLVESGGGLFQAGGSLRLSCAASGRIFPYKVMGWYRQAPGKERELVAAISSGGTTDYADSVKGRFTISRDNAKNTVYLQMNSLKPEDTAVYYCASTYVYWTWGYDYWGQGTQVTVSS” as the sequence, how does the “polyreactivity (PSR sort gate)” value read?
A: low polyreactivity

Q: Which “polyreactivity (PSR sort gate)” value does the source give for “QVQLVESGGGLFQAGGSLRLSCAASGRIFYYNTMGWYRQAPGIERELVAGISTRGGRTYYADSVKGRFTISRDNAKNTVYLQMNSLKPEDTAVYYCAKQYGSYGRYYKYYYWGQGTQLTVSS” here?
A: high polyreactivity

Q: Which “polyreactivity (PSR sort gate)” value does the source give for “QVQLVESGGGLFQAGGSLRLSCAASGRTFKNNAMGWYRQAPGKERELVAAISSNGGSTYYADSVKGRFTISRDNAKNTVYLQMNSLKPEDTAVYYCAADRTIVEYYYWGQGTQVTVSS” here?
A: high polyreactivity

Q: Which “polyreactivity (PSR sort gate)” value does the source give for “QVQLVESGGGLFQAGGSLRLSCAASGSIFERYTMGWYRQSPGKERELVAAISRSGGRTYYADSVKGRFTISRDNAKNTVYLQMNSLKAEDTAVYYCARTRVASKGYDYWGQGTQVTVSS” here?
A: high polyreactivity

Q: Which “polyreactivity (PSR sort gate)” value does the source give for “QVQLVESGGGLFQAGGSLRLSCAASGSIFGDYAMGWYRQAPGKERELVAAITSSGGITYYADSVKGRFTISRDNAKNTVYLQMNSLKPEDTAVYYCAAYGYGSNYRYTCYYYWGQGTQVTVSS” here?
A: low polyreactivity

Q: With “QVQLVESGGGLFQAGGSLRLSCAASGSIFRVYGMGWYRQAPGKERDLVAAITWSGGSTYYADSVKGRFTISRDNAKNTLYVQINSLKPDATAVYYCAARARPRYYRPPYDYWGQGTQVTVSS” as the sequence, how does the “polyreactivity (PSR sort gate)” value read?
A: high polyreactivity

Q: With “QVQLVESGGGLFQAGGSLRLSCAASGSIFYINAMGWYRQAPGKERELVAAISQSDGSTYYADSVKGRFTISSDNAKNTVYLQLNSLKPEDTAVYYCAADAYVLFYGDWYEFDYWGQGTQVTVSS” as the sequence, how does the “polyreactivity (PSR sort gate)” value read?
A: high polyreactivity

Q: Which “polyreactivity (PSR sort gate)” value does the source give for “QVQLVESGGGLFQAGGSLRLSCAASGSIYRKYAMGWYRQAPGKERELVATISWNGGRTHYADSVKGRFTISRDNAKNTVYLQMKSLKPEDTAVYYCAAHTRTSGHNYWGQGTQVTVSS” here?
A: low polyreactivity

Q: Which “polyreactivity (PSR sort gate)” value does the source give for “QVQLVESGGGLFQAGGSLRLSCAASGSTFAFYDMGWYRQATGIERELVAIIDWSGGRTYYADSVKGRFTISRDNAKHTVYLQMNSLKPQDTAVYYCAVDYEYVGGDYWGQGTQVTVSS” here?
A: low polyreactivity

Q: Which “polyreactivity (PSR sort gate)” value does the source give for “QVQLVESGGGLFQAGGSLRLSCAASGSTFESNAMGWYRQAPGKERELVAAISSSGGSTYYADSVKGRFTISRDNAKNTVYLQMNSLKPEVTAVYYCNKGGLSYYDYWGQVTQVTVSS” here?
A: high polyreactivity

Q: With “QVQLVESGGGLFQAGGSLRLSCAASGSTFQYNAMGWYRQAPGKERELVARITSGGRTDYADSVKGRFTITRDNAKNTVYLQMNSLKPEDTAVYYCAARYGYRGSTKYLSKPFYYWGQGTQVNVSS” as the sequence, how does the “polyreactivity (PSR sort gate)” value read?
A: high polyreactivity

Q: With “QVQLVESGGGLFQAGGSLRLSCAASGSTFTTNAMGWYRQAPGKERELVAAITKRGGTTSYADSVKGRFTISRDNAKNSVYLLMNSLKPADTAVYYCAADVEVSWAYDAWWYGGGYYWGQCTQVTVSS” as the sequence, how does the “polyreactivity (PSR sort gate)” value read?
A: high polyreactivity

Q: Which “polyreactivity (PSR sort gate)” value does the source give for “QVQLVESGGGLFQAGGSLRLSCAASGSTLVGNAMGWYRQAPGKERELVATISSSGGSTYYADSVKGRFTISRDNAKNTVYLQMNSLKPEDTGVYYCAARIQWPTWSLYYYWGQGTQVTVSS” here?
A: high polyreactivity

Q: For “QVQLVESGGGLFQAGGSLRLSCAASGTFVTYMGWYRQEPGQERELVAAIRNGGSTNYADSVKGRFTISRDNAKNTVYLQMNSLKPEDTAVYYCAARVTYSRGYRGGSRTKYDYWGQGTQVTVSS”, which “polyreactivity (PSR sort gate)” value is on record?
A: low polyreactivity

Q: With “QVQLVESGGGLFQAGGSLRLSCAASGTTLVRYAMGWYRQAPGIERELVASISYSGGSTHYADSVKGRFTISRDNAKNTVYLQMNSLKPEDTAVDYWAARPYYSWGGHYYWGQGTQVTVSS” as the sequence, how does the “polyreactivity (PSR sort gate)” value read?
A: high polyreactivity

Q: For “QVQLVESGGGLFQAGGSLRLSCAATGRTYEGNAMGWSIQAPGKERELVAAITSGGRTNYADSVKGRFSISRDNAKNTVDLQMNSLKPEDTAVYYCAVETRDRSNYFPGQAYDYWGQGTQVTVSS”, which “polyreactivity (PSR sort gate)” value is on record?
A: low polyreactivity
